These are literature values, as cited in PMC12461627, “Locking CBL TKBD in its native conformation presents a novel therapeutic opportunity in mutant CBL-dependent leukemia” (Molecular Therapy, 2025).

As a reminder, the pKd is the Kd on a negative log10 scale, so that one unit is a factor of ten.

This data set concerns the target pSYK peptide (Homo sapiens) (UniProt P43405). To be noted: cited from earlier work.

pKd: −log10 of the molar value.

Turning to CBL TKBD (from UniProt P22681), the pKd was 5.83.
